Results reported in patent publication US20210087244A1 (UNIVERSITY OF BRITISH COLUMBIA, published 2021).

Legend:
Assay in all cases: SPR direct binding (MASS-1), hybridoma supernatant over immobilized antigen
[1] = target: T1, linear CGHHQKG-conjugated-BSA (SEQ ID NO: 2) (bovine, UniProt P02769 25-607, conjugated to BSA)
T1 construct: also called Linear-Peptide; linear peptide-BSA
Description: (§1) All SPR measurements were performed using a Molecular Affinity Screening System (MASS-1) (Sierra Sensors GmbH, Hamburg, Germany), an analytical biosensor that employs high intensity laser light and high speed optical scanning to monitor binding interactions in real time. The primary screening of tissue culture supernatants was performed using an SPR direct binding assay, whereby BSA-conjugated peptides, A-beta42 Monomer and A-beta42 Oligomer are covalently immobilized on individual flow cells of a High Amine Capacity (HAC) sensorchip (Sierra Sensors GmbH, Hamburg, Germany) and antibodies flowed over the surface. Protein G purified mAbs were analyzed in a secondary screen using an SPR indirect (capture) binding assay, whereby the antibodies were captured on a protein A-derivatized sensorchip (XanTec Bioanalytics GmbH, Duesseldorf, Germany) and A-beta40 Monomer, A-beta42 Oligomer, soluble brain extracts and cerebrospinal fluid flowed over the surface. The specificity of the antibodies was verified in an SPR direct binding assay by covalently immobilizing A-beta42 Monomer and A-beta42 Oligomer on individual flow cells of a HAC sensorchip and flowing purified mAbs.
(§2) Clones were retested for their ability to bind cyclic peptide, linear peptide, A-beta 1-42 monomer and A-beta 1-42 oligomers prepared as described above. Binding assays were performed using SPR as described above (Direct binding assays).

[2] = target: T2, A-beta42 Oligomer (human)
T2 construct: also called A β 42 Oligomer; A-beta 1-42 oligomers
T2 sequence (peptide, as listed by the source): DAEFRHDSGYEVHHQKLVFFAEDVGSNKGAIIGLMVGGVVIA
Description: as §1, §2

[3] = target: T3, cyclo(CGHHQKG)-conjugated-BSA (SEQ ID NO: 2) (bovine, UniProt P02769 25-607, head-to-tail cyclized (amide bond between N- and C-terminus); conjugated to SMCC-activated BSA)
T3 construct: also called Cyclic-Peptide; cyclic peptide-BSA
T3 sequence (P02769 25-607 limits assumed): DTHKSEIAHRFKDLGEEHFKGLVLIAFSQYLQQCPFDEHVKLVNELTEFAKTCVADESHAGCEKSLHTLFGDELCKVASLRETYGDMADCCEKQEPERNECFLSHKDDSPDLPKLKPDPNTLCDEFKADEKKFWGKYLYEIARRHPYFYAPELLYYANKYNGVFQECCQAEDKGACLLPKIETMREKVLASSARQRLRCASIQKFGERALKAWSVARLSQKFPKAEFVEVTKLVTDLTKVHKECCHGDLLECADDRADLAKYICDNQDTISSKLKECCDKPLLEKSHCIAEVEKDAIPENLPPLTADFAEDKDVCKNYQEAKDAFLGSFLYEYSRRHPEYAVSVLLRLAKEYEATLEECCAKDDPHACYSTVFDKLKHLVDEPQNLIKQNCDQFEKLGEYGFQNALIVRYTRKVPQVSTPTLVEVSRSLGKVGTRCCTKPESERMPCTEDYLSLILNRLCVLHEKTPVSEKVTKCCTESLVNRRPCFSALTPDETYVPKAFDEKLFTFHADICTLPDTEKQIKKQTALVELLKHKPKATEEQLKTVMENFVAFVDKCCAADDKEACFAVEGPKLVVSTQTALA
Description: as §1, §2

T1 sequence (P02769 25-607 limits assumed): as above

- response units (RU) [1]: 1150 RU
- response units (RU) [2]: 66.8 RU
- response units (RU) [3]: 698 RU
B1: 301-12G11 (17) (antibody, V domains shown)
VH: QVQLQQPGAELVKPGASVKMSCKASGYSFTSYWINWVKQRPGQGLEWIGDVHPGRGVSTYNAKFKSKATLTLDTSSSTAYMQLSSLTSEDSAVYYCSRSHGNTYWFFDVWGAGTTVTVSS
VL: DVLMTQTPLSLPVSLGDQASISCRSSQSIVHSNGNTYLEWYLQKPGQSPKLLIYKVSNRFSGVPDRFSGSGSGTDFTLKISRVEAEDLGVYYCFQGSHVPFTFGSGTKLEIKR
notes: they begin with a leader (MGWSC.../MKLPV...) and end with a few constant-region residues
